Source: publication PMC2715241 (Nucleic Acids Research, 2009)

Target: the molecule itself
Assay: AUC

B1: histidine tagged MutL–NTD (domain or fragment, E. coli, UniProt P23367 1-375, looked up)
chain: MPIQVLPPQLANQIAAGEVVERPASVVKELVENSLDAGATRIDIDIERGGAKLIRIRDNGCGIKKDELALALARHATSKIASLDDLEAIISLGFRGEALASISSVSRLTLTSRTAEQQEAWQAYAEGRDMNVTVKPAAHPVGTTLEVLDLFYNTPARRKFLRTEKTEFNHIDEIIRRIALARFDVTINLSHNGKIVRQYRAVPEGGQKERRLGAICGTAFLEQALAIEWQHGDLTLRGWVADPNHTTPALAEIQYCYVNGRMMRDRLINHAIRQACEDKLGADQQPAFVLYLEIDPHQVDVNVHPAKHEVRFHQSRLVHDFIYQGVLSVLQQQLETPLPLDDEPQPAPRSIPENRVAAGRNHFAEPAAREPVAPR
  stoichiometry N: 2
